From patent US12269859B2, “Synthetic immune receptors and methods of use thereof” (Angeles Therapeutics, Inc., priority 2016, dated 2025)

B1: 1038 (protein)
chain: MALPVTALLLPLALLLHAARPEIVLTQSPATLSLSPGERATLSCSASSSVSYMHWYQQKPGQAPRLLIYDTSKLASGIPARFSGSGSGTDFTLTISSLEPEDVAVYYCFQGSVYPFTFGQGTKLEIKRLEGKPIPNPLLGLDSTGSGEDLKNVFPPEVAVFEPSEAEISHTQKATLVCLATGFYPDHVELSWWVNGKEVHSGVSTDPQPLKEQPALNDSRYCLSSRLRVSATFWQNPRNHFRCQVQFYGLSENDEWTQDRAKPVTQIVSAEAWGRADCGFTSESYQQGVLSATILYEILLGKATLYAVLVSALVLMAMVKRKDSRGRAKRSGSGATNFSLLKQAGDVEENPGPTSMDWIWRILFLVGAATGAHSFEQVQLQESGPGLVKPSQTLSLTCTVSGGSISTSGMGVGWIRQHPGKGLEWIGHIWWDDDKRYNPALKSRVTISVDTSKNQFSLKLSSVTAADTAVYYCARMELWSYYFDYWGQGTLVTVSSTREQKLISEEDGSGIQNPDPAVYQLRDSKSSDKSVCLFTDFDSQTNVSQSKDSDVYITDKTVLDMRSMDFKSNSAVAWSNKSDFACANAFNNSIIPEDTFFPSPESSCDVKLVEKSFETDTNLNFQNLSVIGFRILLLKVAGFNLLMTLRLWSSRAKRSGSGVKQTLNFDLLKLAGDVESNPGPSRGHMTEYKPTVRLATRDDVPRAVRTLAAAFADYPATRHTVDPDRHIERVTELQELFLTRVGLDIGKVWVADDGAAVAVWTTPESVEAGAVFAEIGPRMAELSGSRLAAQQQMEGLLAPHRPKEPAWFLATVGVSPDHQGKGLGSAVVLPGVEAAERAGVPAFLETSAPRNLPFYERLGFTVTADVEVPEGPRTWCMTRKPGA
modifications: Synthetic polynucleotide encoding a SIR
B2: 11240 (protein)
chain: MALPVTALLLPLALLLHAARPDIVMTQSPATLSLSPGERATLSCRSSKSLQNVNGNTYLYWFQQKPGQSPQLLIYRMSNLNSGVPDRFSGSGSGTEFTLTISSLEPEDFAVYYCMQHLEYPITFGAGTKLEIKLEEQKLISEEDLGSGEDLKNVFPPEVAVFEPSKAEIAHTQKATLVCLATGFYPDHVELSWWVNGKEVHSGVCTDPQPLKEQPALNDSRYCLSSRLRVSATFWQNPRNHFRCQVQFYGLSENDEWTQDRAKPVTQIVSAEAWGRADCGITSASYHQGVLSATILYEILLGKATLYAVLVSALVLMAMVKRKDSRGRAKRSGSGATNFSLLKQAGDVEENPGPTSMDWIWRILFLVGAATGAHSFEEVQLVESGGGLVKPGGSLKLSCAASGYTFTSYVMHWVRQAPGKGLEWIGYINPYNDGTKYNEKFQGRVTISSDKSISTAYMELSSLRSEDTAMYYCARGTYYYGTRVFDYWGQGTLVTVSSTREQKLISEEDLGSGIQNPDPAVYQLRDSKSSDKSVCLFTDFDSQTNVSQSKDSDVYITDKCVLDMRSMDFKSNSAVAWSNKSDFACANAFNNSIIPEDTFFPSSDVPCDVKLVEKSFETDTNLNFQNLSVIGFRILLLKVAGFNLLMTLRLWSSRAKRSGSGVKQTLNFDLLKLAGDVESNPGPSRGHMTEYKPTVRLATRDDVPRAVRTLAAAFADYPATRHTVDPDRHIERVTELQELFLTRVGLDIGKVWVADDGAAVAVWTTPESVEAGAVFAEIGPRMAELSGSRLAAQQQMEGLLAPHRPKEPAWFLATVGVSPDHQGKGLGSAVVLPGVEAAERAGVPAFLETSAPRNLPFYERLGFTVTADVEVPEGPRTWCMTRKPGA
B3: 11245 (protein)
chain: MALPVTALLLPLALLLHAARPDIQMTQSPSSLSASVGDRVTITCKASDHINNWLAWYQQKPGQAPKLLIYGATTLETGVPSRFSGSGSGTDYTLTISSLQPEDFATYYCQQSWNTPWTFGQGTKLEIKRLEDLKNVFPPEVAVFEPSKAEIAHTQKATLVCLATGFYPDHVELSWWVNGKEVHSGVCTDPQPLKEQPALNDSRYCLSSRLRVSATFWQNPRNHFRCQVQFYGLSENDEWTQDRAKPVTQIVSAEAWGRADCGITSASYHQGVLSATILYEILLGKATLYAVLVSALVLMAMVKRKDSRGRAKRSGSGATNFSLLKQAGDVEENPGPTSMDWIWRILFLVGAATGAHSFEQVQLQQPGAELVKPGASVKMSCKASGYAFSSYWINWMKQKPGQGLEWIGQIYPGDGDTNYNGKFKGRATLTADTSSSTAYMQLSSLTSEDSAVYFCARSITTVVGCAMDYWGQGTSVTVSSTRIQNPDPAVYQLRDSKSSDKSVCLFTDFDSQTNVSQSKDSDVYITDKCVLDMRSMDFKSNSAVAWSNKSDFACANAFNNSIIPEDTFFPSSDVPCDVKLVEKSFETDTNLNFQNLSVIGFRILLLKVAGFNLLMTLRLWSSRAKRSGSGVKQTLNFDLLKLAGDVESNPGPSRGHMTEYKPTVRLATRDDVPRAVRTLAAAFADYPATRHTVDPDRHIERVTELQELFLTRVGLDIGKVWVADDGAAVAVWTTPESVEAGAVFAEIGPRMAELSGSRLAAQQQMEGLLAPHRPKEPAWFLATVGVSPDHQGKGLGSAVVLPGVEAAERAGVPAFLETSAPRNLPFYERLGFTVTADVEVPEGPRTWCMTRKPGA
B4: 10492 (protein)
chain: MALPVTALLLPLALLLHAARPDVVMTQSPSSLSASVGDRVTITCRASQDISKYLNWYQQKPGKAPKLLIYHTSRLHSGVPSRFSGSGSGTDFTLTISSLQPEDFATYYCQQGNTLPYTFGGGTKVEIKLEDLKNVFPPEVAVFCPSEAEISHTQKATLVCLATGFYPDHVELSWWVNGKEVHSGVSTDPQPLKEQPALNDSRYCLSSRLRVSATFWQNPRNHFRCQVQFYGLSENDEWTQDRAKPVTQIVSAEAWGRADCGFTSESYQQGVLSATILYEILLGKATLYAVLVSALVLMAMVKRKDSRGRAKRSGSGATNFSLLKQAGDVEENPGPTSMDWIWRILFLVGAATGAHSFEQVQLQESGPGLVKPSQTLSLTCTVSGVSLPDYGVSWIRQPPGKGLEWIGVIWGSETTYYNSALKSRVLISVDTSKNQVSLKLSSVTAADTAVYYCARHYYYGGSYAMDYWGQGTTVTVSSTRIQNPDPAVYQLRDCKSSDKSVCLFTDFDSQTNVSQSKDSDVYITDKTVLDMRSMDFKSNSAVAWSNKSDFACANAFNNSIIPEDTFFPSPESSCDVKLVEKSFETDTNLNFQNLSVIGFRILLLKVAGFNLLMTLRLWSS
B5: 10815 (protein)
chain: MALPVTALLLPLALLLHAARPDIQMTQSPSSLSASVGDRVTITCKASDHINNWLAWYQQKPGQAPKLLIYGATTLETGVPSRFSGSGSGTDYTLTISSLQPEDFATYYCQQSWNTPWTFGQGTKLEIKRLEIQNPDPAVYQLRDSKSSDKSVCLFTDFDSQTNVSQSKDSDVYITDKCVLDMRSMDFKSNSAVAWSNKSDFACANAFNNSIIPEDTFFPSSDVPCDVKLVEKSFETDTNLNFQNLSVIGFRILLLKVAGFNLLMTLRLWSSRAKRSGSGVKQTLNFDLLKLAGDVESNPGPTSMDWIWRILFLVGAATGAHSFEQVQLQQPGAELVKPGASVKMSCKASGYAFSSYWINWMKQKPGQGLEWIGQIYPGDGDTNYNGKFKGRATLTADTSSSTAYMQLSSLTSEDSAVYFCARSITTVVGCAMDYWGQGTSVTVSSTREDLKNVFPPEVAVFEPSKAEIAHTQKATLVCLATGFYPDHVELSWWVNGKEVHSGVCTDPQPLKEQPALNDSRYCLSSRLRVSATFWQNPRNHFRCQVQFYGLSENDEWTQDRAKPVTQIVSAEAWGRADCGITSASYHQGVLSATILYEILLGKATLYAVLVSALVLMAMVKRKDSRGRAKRSGSGATNFSLLKQAGDVEENPGPSRGHMTEYKPTVRLATRDDVPRAVRTLAAAFADYPATRHTVDPDRHIERVTELQELFLTRVGLDIGKVWVADDGAAVAVWTTPESVEAGAVFAEIGPRMAELSGSRLAAQQQMEGLLAPHRPKEPAWFLATVGVSPDHQGKGLGSAVVLPGVEAAERAGVPAFLETSAPRNLPFYERLGFTVTADVEVPEGPRTWCMTRKPGA

What was measured:
RAJI cells = test: Jurkat NFAT-GFP assay, coculture with RAJI cells; type: cell-based, human
Protocol: (B) Induction of NFAT promoter driven GFP expression. The control vector- and SIR-expressing Jurkat-NFAT-GFP cocultured for 4-24 hours with the target antigen-expressing cell line (described above) and their ability to bind to the target antigen is assayed by measuring induction of GFP expression using Flow Cytometry. Cellular supernatant is collected and assayed for the induction of cytokines (e.g., IL2).
Jurkat NFAT-GFP Assay For Synthetic Immune Receptors. The Jurkat-NFAT-GFP cells are engineered in such a way that the IL-2 promoter, which carries NFAT binding sites, is cloned upstream of the GFP gene. These cells have been used to study signaling via TCR and CAR. The different SIRs were stably expressed in Jurkat NFAT-GFP cells by lentiviral mediated gene transfer, followed by selection with puromycin. The SIR-expressing Jurkat-NFAT-GFP cells were cocultured with the target cells at E:T ratio of approximately 1:2 for approximately 4 hours to 18 hours. When the interaction between SIRs and their target antigen results in activation of the NFAT pathway, GFP expression is induced.
Induction of GFP expression by coculturing of Jurkat-NFAT-GFP cells expressing different SIR constructs and the different target cells was studied essentially as described previously (Wu, Roybal, Puchner, Onuffer, & Lim, 2015). GFP expression was monitored by FACS analysis. […] In panel B, Jurkat cells expressing SIR targeting CDH6 (Clone ID: 051716-J05), CD276 (Clone ID: 050516-Q06) and Her2/neu (Clone ID: 050516-I03) were incubated with SKOV3 (top) and […] (middle and bottom) cells, respectively. […] The Jurkat-NFAT-GFP cells were engineered to express different SIRs targeting other antigens and the experiment repeated upon coculture with the target cells expressing their respective target antigen. The Jurkat-NFAT-GFP (parental) cells were used as control. […] The names of different SIRs, their SEQ ID NOs, component antigen binding domains and TCR chains can be determined by reference to Tables 7A-7H. A SIR is considered positive in the assay in case the SIR expressing Jurkat-NFAT-GFP cells show greater % GFP positive cells when cultured with the target cell line as compared to parental Jurkat-NFAT-GFP cells. […] The signs +/−, +, 2+ etc. after the name of the cell lines indicate the relative degree of positivity on the Jurkat-NFAT-GFP assay as measured by the % GFP positive cells after culture of the SIR expressing Jurkat-NFAT-GFP cells with that cell line.

[1] = FACS detection of CARs and SIRs by Myc and Protein L staining (cell surface expression); type: cell-based, human; conditions: staining with APC-conjugated Protein-L, Jurkat-NFAT-GFP cells
Protocol: FACS analysis. Mouse Anti-Human c-Myc APC-conjugated Monoclonal Antibody (Catalog #IC3696A) was from R&D Systems (Minneapolis, MN). Biotinylated protein L was purchased from GeneScript (Piscataway, NJ), reconstituted in phosphate buffered saline (PBS) at 1 mg/ml and stored at 4° C. Streptavidin-APC (SA1005) was purchased from ThermoFisher Scientific.
For detection of CARs and SIRs using Myc staining, 1×10^6 cells were harvested and washed three times with 3 ml of ice-cold 1×PBS containing 4% bovine serum albumin (BSA) wash buffer. After wash, cells were resuspended in 0.1 ml of the ice-cold wash buffer containing 10 μl of APC-conjugated Myc antibody and incubated in dark for 1 hour followed by two washings with ice cold wash buffer.
For detection of CARs and SIRs using Protein L staining, 1×10^6 cells were harvested and washed three times with 3 ml of ice-cold 1×PBS containing 4% bovine serum albumin (BSA) wash buffer. After wash, cells were resuspended in 0.1 ml of the ice-cold wash buffer containing 1 μg of protein L at 4° C. for 1 hour. Cells were washed three times with ice-cold wash buffer, and then incubated (in the dark) with 10 μl of APC-conjugated streptavidin in 0.1 ml of the wash buffer for 30 minutes followed by two washings with ice cold wash buffer. FACS was done using FACSVerse analyzer from BD Biosciences.

[2] = overnight co-culture with RAJI cells, Table 10C

Molecule	NFAT-GFP (%) (RAJI cells; [2])	Prt-L-APC (%) [1] [%]	NFAT-GFP (%) (RAJI cells; GFP expression upon 18 hour co-culture with RAJI cells, Table 10B)
B1	4.49	–	–
B2	31.59	–	–
B3	71.81	–	–
B4	–	8	2.48
B5	52.36	–	–
